From patent US20210063414A1, “METHODS FOR PREVENTING AND/OR TREATING BONE LOSS CONDITIONS BY MODULATING IRISIN” (Dana-Farber Cancer Institute, Inc., priority 2018, published 2021)

How the values were obtained:
[1] = biological target: T1, integrin αV/β3 (Homo sapiens, UniProt P05106+P06756); assay: FAK phosphorylation in HEK293T cells with forced expression of integrin αV/β3; type: cell-based; conditions: HEK293T with integrin αV/β3, vitronectin-coated plates
T1 construct: expressed in transfected cells; host or cells: HEK293T
T1 sequence (P06756 31-889 limits assumed): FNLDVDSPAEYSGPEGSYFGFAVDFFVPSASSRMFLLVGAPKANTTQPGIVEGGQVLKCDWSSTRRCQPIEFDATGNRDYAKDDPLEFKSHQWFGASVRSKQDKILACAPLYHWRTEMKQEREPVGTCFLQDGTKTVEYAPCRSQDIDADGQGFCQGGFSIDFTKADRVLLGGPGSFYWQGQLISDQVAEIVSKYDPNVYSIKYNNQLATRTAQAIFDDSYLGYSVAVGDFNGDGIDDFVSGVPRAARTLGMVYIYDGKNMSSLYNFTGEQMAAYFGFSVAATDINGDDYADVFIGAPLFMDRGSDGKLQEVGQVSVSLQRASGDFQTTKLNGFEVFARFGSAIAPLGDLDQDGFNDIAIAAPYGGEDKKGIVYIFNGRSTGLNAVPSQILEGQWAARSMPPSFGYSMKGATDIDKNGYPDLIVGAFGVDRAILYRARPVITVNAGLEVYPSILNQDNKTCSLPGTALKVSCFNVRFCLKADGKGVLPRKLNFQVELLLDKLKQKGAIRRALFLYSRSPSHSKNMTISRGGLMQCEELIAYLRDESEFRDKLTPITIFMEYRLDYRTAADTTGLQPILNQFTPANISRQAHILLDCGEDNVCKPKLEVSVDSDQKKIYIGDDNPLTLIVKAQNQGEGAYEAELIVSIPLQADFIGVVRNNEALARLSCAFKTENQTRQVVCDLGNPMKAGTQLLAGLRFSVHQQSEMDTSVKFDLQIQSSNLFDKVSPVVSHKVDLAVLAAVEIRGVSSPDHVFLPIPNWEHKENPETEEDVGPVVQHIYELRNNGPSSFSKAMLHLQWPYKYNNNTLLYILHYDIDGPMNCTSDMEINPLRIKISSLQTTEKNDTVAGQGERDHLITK
T1 sequence (P06756 891-1048 partner limits assumed): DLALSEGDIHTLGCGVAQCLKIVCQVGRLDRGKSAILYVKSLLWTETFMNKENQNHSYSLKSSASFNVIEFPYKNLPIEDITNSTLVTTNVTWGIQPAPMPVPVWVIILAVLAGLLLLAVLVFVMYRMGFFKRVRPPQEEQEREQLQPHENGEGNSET
T1 sequence (P05106 27-788): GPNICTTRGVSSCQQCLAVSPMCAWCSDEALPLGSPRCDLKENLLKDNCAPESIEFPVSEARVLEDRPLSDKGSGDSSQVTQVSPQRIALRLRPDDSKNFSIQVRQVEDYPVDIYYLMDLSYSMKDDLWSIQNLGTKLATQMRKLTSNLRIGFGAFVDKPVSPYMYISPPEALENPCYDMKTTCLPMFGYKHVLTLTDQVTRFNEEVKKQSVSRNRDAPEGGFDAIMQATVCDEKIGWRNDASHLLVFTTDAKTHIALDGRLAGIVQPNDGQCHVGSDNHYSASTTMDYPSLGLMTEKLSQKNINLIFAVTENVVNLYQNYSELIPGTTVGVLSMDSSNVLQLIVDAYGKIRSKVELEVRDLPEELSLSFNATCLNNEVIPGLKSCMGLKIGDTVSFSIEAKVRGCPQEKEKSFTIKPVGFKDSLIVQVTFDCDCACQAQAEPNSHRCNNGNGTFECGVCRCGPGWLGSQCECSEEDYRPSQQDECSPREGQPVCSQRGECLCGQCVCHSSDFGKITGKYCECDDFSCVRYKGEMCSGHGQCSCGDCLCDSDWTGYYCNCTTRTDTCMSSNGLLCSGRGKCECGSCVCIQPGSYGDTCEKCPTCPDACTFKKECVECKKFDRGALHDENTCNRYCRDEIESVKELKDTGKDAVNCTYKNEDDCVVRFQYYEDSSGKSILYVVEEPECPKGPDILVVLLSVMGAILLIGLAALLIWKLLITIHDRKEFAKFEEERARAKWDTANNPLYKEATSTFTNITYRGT
Description: 100 nM irisin was incubated with 5 nM indicated his-tag integrins followed by immunoprecipitation using Ni-NTA agaroses. Precipitated integrins and co-precipitated irisin were analyzed by immunoblot analysis. […] HEK293T cells were seeded and incubated until 50% cell density. The cells were transfected with 0.1 μg plasmids of indicated integrins. After 48 hours, the cells were incubated with Freestyle293 medium for 3 hours and were treated with indicated concentration of irisin for 5 minutes. Cells were lysed to detect the indicated protein level using immunoblot analysis. […] MLO-Y4 cells were treated as described in FIG. 2D with addition of pretreatment of indicated antagonistic antibodies for 10 minutes. Cells were lysed to detect the indicated protein level using immunoblot analysis. […] Sclerostin mRNA level was analyzed by qRT-PCR. […]
100 nM irisin was incubated with 5 nM indicated his-tag integrins followed by immunoprecipitation using Ni-NTA agaroses. Precipitated integrins and co-precipitated irisin were analyzed by immunoblot analysis. […] Cells were treated and analyzed as FIG. 14B except using plasmids encoding integrin α5/β1 or integrin α11/β1 (FIG. 15C) integrin αV/β1(FIG. 15D). […]
(§1) Cells were harvested in RIPA buffer containing protease-inhibitor cocktail and phosphataseinhibitor cocktail. […] Protein levels were analyzed via western blot using indicated antibody. […]

[2] = biological target: T2, integrin αV/β5 (Homo sapiens, UniProt P06756+P18084); assay: FAK phosphorylation in HEK293T cells with forced expression of integrin αV/β5; type: cell-based; conditions: HEK293T with integrin αV/β5, vitronectin-coated plates
T2 construct: expressed in transfected cells; host or cells: HEK293T
T2 sequence (P06756 31-889 limits assumed): as the sequence (P06756 31-889 limits assumed) above
T2 sequence (P06756 891-1048 partner limits assumed): as the sequence (P06756 891-1048 partner limits assumed) above
T2 sequence (P18084 24-799): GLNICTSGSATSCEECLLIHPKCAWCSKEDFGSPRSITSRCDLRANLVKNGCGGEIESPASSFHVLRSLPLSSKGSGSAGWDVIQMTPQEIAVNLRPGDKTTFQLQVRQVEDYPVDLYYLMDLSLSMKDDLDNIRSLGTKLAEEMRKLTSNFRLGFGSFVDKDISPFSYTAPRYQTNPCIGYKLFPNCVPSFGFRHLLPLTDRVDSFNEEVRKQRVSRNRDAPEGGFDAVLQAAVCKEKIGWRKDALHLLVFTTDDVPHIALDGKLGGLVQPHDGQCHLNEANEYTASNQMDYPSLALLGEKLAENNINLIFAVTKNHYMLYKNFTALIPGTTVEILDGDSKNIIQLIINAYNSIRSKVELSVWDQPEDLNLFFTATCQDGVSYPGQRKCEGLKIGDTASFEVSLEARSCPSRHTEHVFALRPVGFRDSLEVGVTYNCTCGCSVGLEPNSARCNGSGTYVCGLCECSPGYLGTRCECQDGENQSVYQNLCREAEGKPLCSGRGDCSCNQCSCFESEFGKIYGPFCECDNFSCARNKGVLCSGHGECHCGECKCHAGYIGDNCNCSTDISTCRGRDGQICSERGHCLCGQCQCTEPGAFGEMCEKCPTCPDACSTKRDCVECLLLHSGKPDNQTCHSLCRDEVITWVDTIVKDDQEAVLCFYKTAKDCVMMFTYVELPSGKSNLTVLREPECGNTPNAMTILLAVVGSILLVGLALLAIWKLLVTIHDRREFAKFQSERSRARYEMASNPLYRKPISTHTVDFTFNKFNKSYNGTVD
Description: 100 nM irisin was incubated with 5 nM indicated his-tag integrins followed by immunoprecipitation using Ni-NTA agaroses. Precipitated integrins and co-precipitated irisin were analyzed by immunoblot analysis. […] HEK293T cells were seeded and incubated until 50% cell density. The cells were transfected with 0.1 μg plasmids of indicated integrins. After 48 hours, the cells were incubated with Freestyle293 medium for 3 hours and were treated with indicated concentration of irisin for 5 minutes. Cells were lysed to detect the indicated protein level using immunoblot analysis. […] MLO-Y4 cells were treated as described in FIG. 2D with addition of pretreatment of indicated antagonistic antibodies for 10 minutes. Cells were lysed to detect the indicated protein level using immunoblot analysis. […] MLO-Y4 cells were treated as described in FIG. 1B except with addition of the pretreatment of indicated antagonistic antibodies for 10 minutes. Sclerostin mRNA level was analyzed by qRT-PCR. Cyclophilin was used for house-keeping gene. […] The ribbon diagram is colored by HDX stabilization/destabilization. Percentages of deuterium differences are color-coded according to the smooth color gradient key at the bottom. Crystal structure of irisin dimer is from Protein Data Bank (PDB) (4 lsd) and a homology model of integrin β5 was built based on integrin β3 structure from PDB (4MMX).
100 nM irisin was incubated with 5 nM indicated his-tag integrins followed by immunoprecipitation using Ni-NTA agaroses. Precipitated integrins and co-precipitated irisin were analyzed by immunoblot analysis. […] HEK293T cells were seeded and incubated until 50% cell density. The cells were transfected with 0.1 μg plasmids of indicated integrins. After 48 hours, the cells were re-split to indicated dose of vitronectin-coated plates. Cells were incubated with culture medium for 3 hours. Cells were lysed to detect the indicated protein level using immunoblot analysis. FIG. 15C and FIG. 15D show the immunoblot data. Cells were treated and analyzed as FIG. 14B except using plasmids encoding integrin α5/β1 or integrin α11/β1 (FIG. 15C) integrin αV/β1(FIG. 15D).
MLO-Y4 cells were treated and analyzed as described in FIG. 5A with addition of pretreatment of control RGD peptide, cyclo RGDyK (cRGDyK), or SB273005. […] HEK293 cells were treated and analyzed as described in FIG. 14B except the treatment of different dose of cyclo RGDyK. […] 8 weeks old male mice were treated and analyzed as described in FIG. 5D except the additional group with co-injection of 1 mg/kg SB273005. […]
as §1

Vitronectin: a ligand for integrin αV family, positive control [reference compound]
phosphorylation of FAK (positive control) [1]: induced phosphorylation of FAK | phosphorylation of FAK (positive control) [2]: induced phosphorylation of FAK
